Test results published in the domain aggregation screens of Martell et al. (2025).

Test: soluble fraction after stress (log2 fold change); higher = more stays soluble; pooled small domains, quantitative proteomics
Details: stress: pH 4
Outline: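 How much of each domain stays soluble after acid stress, expressed as a fold change, is used to gauge aggregation propensity. Pooled custom libraries of small domains underwent pH 4 stress before high-throughput quantitative proteomics. A higher log2 value means more of the domain stayed soluble.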

| Sequence | soluble fraction (log2) |
| --- | --- |
| HMIAIGDDARLDDAARFFRIAEDSYAAGDYRKSKENYIEARKLYAELGDHEKVNLINSKISAIDSIT | -0.0121 |
| HMIAVIKPSATAEQKAGLVDWIRGQGIDVHISEGHDYTVLGLIGDTSKIDMDLIASLDIVDSVKRVA | -0.168 |
| HMIDAHTTLLAKRLESKGFLALTDKSSAEEIYEEFGISKKAFKKALGALYKERLVRIGEDGVVWM | -0.721 |
| HMIDDPTAVILRLVSEKQVIRRDDVVKALSVTPQKAYRLLKTMTTGGLLTRSGARRTTVYGLPDARER | 0.22 |
| HMIDEKVQAADKSIEIGNLSPLKGLVTDDEMHELEKLFEKVMALKDFEVNDVGAGRKYIEAYVSFFKFAEG | -0.847 |
| HMIDELNVGDIRFYLNRYGKEIQIEIIRIGDDGSVYARTMADNALFRVPEARLKNIGEKVPAEEVQRG | -0.348 |
| HMIDFTHEDIERLWNAIVHYVPERQKSDMAIDFIKSLEDIGVEHDEIKASAEYDPKLEEAINTVY | -0.357 |
| HMIDIDNLEKAAILLLSMGTEAAAKVMQKLSRDEVQRLISKMASLSGVSSIEAKWTLQQFFNQYREQSG | -0.832 |
| HMIDLSELINKTGSAYTNLRPSGTAVIGDDRVDVVTEGTFVEKDRPVKVVAVEGQRVVVREVE | -0.206 |
| HMIDMQIDTARFGTLGVDDDKIITFPKGLPGFEDERRFFLMDHSGSSKIKWLHSADNPGLALV | -0.541 |
| HMIDVGSKIRSLRKSKNISISTLAKNSDLSTGLISQIERNMVVPSIVAMWKISKALDINIGYFFE | -0.109 |
| HMIEDMQQYIKEIRQMVSGRLDMTRNLEDEEIRDTIAELVAEESRKQYMTLTEKREVIEGVFNSMR | -0.687 |
| HMIEEIAVPEILGMQEEEAKAKIEGLGLVFNVTDRVKSNEYEKGEVMYQSVGPDDTTVKSGYPINVTISEG | -0.162 |
| HMIEEIPYSQFMSMLEEGKIDKAEIYQDSIIFSTKPDEQGKAGYYSIAYMKDNVLADRLYDAGVEFTPII | -1.4 |
| HMIEGEQVRLLRLLERQEGGMLPLGDKSPASDILLLTGMSKKTFKMAVGALYKAQMITMTPTSIKLVK | 0.386 |
| HMIEGETPEQTMERVSKDPEIVQILQDPVMQGILAQARENPAALQDHMKNPEVYKKINMLIAAGVIRT | -0.113 |
| HMIEGSSDWKPNMILDDGGDLTKIIHEEYQDLLDDIRGLSEETTTGVLRLYEMEKENSLAVPAINVND | -0.578 |
| HMIEKGSDALEKELRKNNLSINEFLTNKNIDIILDELKLKDIDDLYVNIALGKYTPNQIIKIVNK | -0.61 |
| HMIELEGVISSVLAGTMFKVKLRGNGHEVLAHISGKMRKKFIRLVIGDAVKIEMSPYDMDKARIVYRI | 0.269 |
| HMIELTTDYKKRVVEALVSARENYSGSDSDFARKWSIDKTVYSRLKKGYQEGLLSVGKYIELGMELNVSSR | 0.0127 |
| HMIENITIELNKKALALDFELNKDLPEGVLETIPTLVSLMVRFDPLTVSYHFLRDYIDALLESNLNVDL | -0.56 |
| HMIENMQEYVRHIRAAVSDRLDLTREVEDDEIREVISQIVAEESRQNYLSLGERQTVIETVFNSMR | -2.17 |
| HMIERLVEFVHTLRHSGVRVSMAEAMDAAEALRHTPITERQIFKTALQSVLVKEHQDIPAFDAAFERFFL | -0.728 |
| HMIESLKGILHKKDPTIAIIDVGGVRLSVNITLSTYEKLEEINSSIELLTYFNVREDAMELYG | -0.377 |
| HMIETIIGAEGKVLETIDNFNQKGVVALAGKEWTARSADASIIPEGAKVSVVEISGVKLIVTQN | -0.24 |

| Sequence | soluble fraction (log2) |
| --- | --- |
| HMIETLGDATFKRLKAMILDGTLEPGTRLSEKKFADHLGVSRTPVREAIGQLVSEGLAKRSAGSAPVVSS | 0.069 |
| HMIFSIIPGQIRLTKMEIADGYLVLYGFTPSKEIYNLHLNPALKSIFTSSETSFIPVSGGLKFMSTNKL | -0.442 |
| HMIGAKVLVNGQLHRDSYGEGPGQTESNATRLVNYINMKGSHPYHVTTLDGGWRGWVTADSVQV | ≥ 0.43 |
| HMIGDNNELFQKAQLTPREKEVALLLLQGETNSDIAKILYVGLSTVKKHISSIFEKTKVKSRTEFISKVR | 0.0668 |
| HMIGDYALILNIKGGSDWYLGNRVELLFTDGTSKIVTTDKDYNAKKDMVPTQIVTYKVNDNGEYSLKALPT | -1.2 |
| HMIGEKLKEIREKTGMNKKEFAQYLGLKYTTYNNYETEAREPASDFLILISTKFDVSIDYLLGLQ | -0.389 |
| HMIGIEALAGEIDRVRQVLTGGGGLSDVQLFSQLKALNEIKAALGASPDPRAPELVQRVDQLLEAAFRS | -1.1 |
| HMIGIGSDVPNKLKPAIYSFGLVAVGEKSVIPDGVQIGKNTAVSGVTSKEDYPDGVLESGETLIKA | 0.22 |
| HMIGKLTSSKLAAIHKMKTNELLAHFTEKGFLNINDAGKYILTQQGKDVGAEFKTSQYGGYFLWPENIE | 0.0031 |
| HMIGTPLSEWQKDAPEEITRDQIAELVILKFVTVEQLALASDAQLQRIGMGGVGLRERAKLYLNRK | -0.316 |
| HMIGVNMEKSTVEKFANELNLPIDLLLKQLESAGIKKTSGAEELLEADKSALLNYLQIEHGA | -0.678 |
| HMIGVQEFAMTYALTRRETEITQLIIQGKSNAMIAGELFISETTVKKHVSNIFEKTGVSRREELMVRVQAE | -1.45 |
| HMIHANGLTDRQEMILEFIRSYISENNYPPSVREIGKGVGLASSASVHNNMKKLASLGFLNWDTD | -0.194 |
| HMIHFDHPERSILDTMLYEKKGMTAQSARNRLAAYQFQGEDVFKPVSVLSGGELSRITLAIKNAMADK | 0.0479 |
| HMIHQPNNETTRNLIAGVVKKSLSVWETRVQVDGVDVTTAKDNLAEVHINIRYRLRHNQTPASLGLRLNLG | -0.15 |
| HMIHSEDMDDHILGHKLVDQYLNKHIEFDNIKKAWNYHTVAIKKFGRYPHRNKILKRESTIEEIDFLKQP | -0.298 |
| HMIHSEEIQDHIFVKQLGEVFLRNHINYENIMKSWDDHTNVIKRFRRYPHRNKILNRESTIDEISFLKE | -0.0283 |
| HMIIDTELMTRVMKFGFSQADASDLVAQHSDDLLRTAISRVEARAESKGMTPLETPAGYFRWTLQDLVRNP | -2.02 |
| HMIIIMKKSATNSEVRKVIERAEKEGLTVQVNQLEKQQVLGLVGDTRLIQDVAFLRYEGVENVERI | 0.206 |
| HMIILYTDEQQRIIDRLNEFIGEQPSQNEAAKLLGISAPILTNLRKGTYTGTVDKFMNKLAAYFNIKADLG | -0.372 |
| HMIIMVNLYQIWDKEVQGLDSVGAKPEQIEARRQAIAAHFESKARQAGMSSKDIYATLDNFDTYSRQKTS | -1.3 |
| HMIINFDAIRLTTELNKYNRHKAIPNSFFDGTFTILDVRDLYDSLSPKVQKIADTLIEQYNVDVKQ | -1.22 |
| HMIISMKKGATPQEISHVRKLIEELGYKVHESQGSERMVFGAIGDERSKHRLTSLEAQPGVEKVIPILA | 0.168 |
| HMIISMKKTATKEQIAHVRELIEGMGYKAHMSVGAERVIFGAIGDERGKERLVSLEAQPGVEKVIPIL | ≥ 0.43 |
| HMIITLNIENLKRARENAGLTQTQAAQKIGVSDGTYKNYEQGKREPNGDKIVTIANAFGVTTDYLLGR | 0.22 |

| Sequence | soluble fraction (log2) |
| --- | --- |
| HMIIVMRKGATEAQVNDIVERVRAAGFGVHLSQGEERTIIGAIGGDRAVLADLNLEAAPGVERVTPIS | -0.0491 |
| HMIIYGLNPVKDFINLFPNKISTLFISKNKLSDSEMKSVVNINTVYVSDAELKRITGTTKHQSLAAEID | -0.721 |
| HMIKILGSAYRHGLDDDDILRAWNYHIQEFFEGEDPEKIVRLGFDTHGRLLEIGGEIYPGGGEKIFHAM | -0.719 |
| HMIKITLPDGSVKEYKKGITPAEVAQSISEGLARNVISASYNGKTIETVTPLTTDGSLVLYTWDSPEGK | -0.168 |
| HMIKLTVRQQEILDLIARSIDQTGFPPTRAEIAAELGFKSVNAAEEHLQALARKGVIEMVPGISRGIRLVQ | -0.306 |
| HMIKRNPLDEIEGVGPGRKKALLHAFGSAKGVSRASVVDLVKVEGVSQALAERIHDFFHPATR | 0.198 |
| HMIKSIRELAEVITLWKNQGKTILIAEHRLSYLMDLADRVLYMKDGQIENDFSMADFRKIPPDEISRMGLR | -0.532 |
| HMIKVAANESNRSDVLEIVRLFRVRVVDVNPESLTIEATGAEGKIDALLGLLEHYGVIELVRSGAVAVT | -1.1 |
| HMILESREKYLGEVLEVLVEEEKEGEYFGYSQNYLRVKFKLEEKNLINQLINIKIKSIEDDILIGEKEN | -2.36 |
| HMILKNVTSDLANKRLDKVASILFQTYSRTQIKKWILEGRVLVNGEISNPKDHVHENDEIEINPI | ≥ 0.43 |
| HMIMISKSFEINEDNINKRLDIFLTENLDGLSRGIVQKYISLEQITVNKESSHKDYRLKLDDFIEVKIQAH | -1.06 |
| HMIMNDIQAKVLEIAETKDLGSITYYRLSKMLGVDHPYRVKYAIDKLIEKGLLTAKSDGSITKAI | 0.204 |
| HMIMTTKVSGIMFDKFNPSAILNINGMDYLVRSGDIINGYKILSIGQETVTVQYGANVYKASVG | -0.603 |
| HMIMVAGHLQIKKGKYYMVLELKSESGERKTKWISTGLSAKGNKRKAEAMLEEARENYQSTDA | -0.0361 |
| HMINIFKVKKAMEEIFASEWEDSPYTDQKISQILWSRGFSVSTGLVEKYRGQMGVPDANSRLNLN | -1.39 |
| HMINIGANIRAIRKQKNIKQVDLVRLLQLEGVEITRETLVKIESGVQHIKASQLRGIRDALGTTYDELL | -0.863 |
| HMINITALVKQLGGVDISKFNSAFKLLQQGKPLNTISNKVMADTFVALMKNSDEALNTKFRAAFKKI | 0.0515 |
| HMINKIANLSAELRMEGLPVSIRSTQAAVKIYMDLGGDDRNLLKTALMSIYVKDRYDIPKFNKVFEKLFA | 0.0706 |
| HMINKQPKDYEYFLEKWHFTQTEKHQLHNLILKLNIRYPNKDFLKITENLDNGKLVLKKLEERLSKT | -0.7 |
| HMINNINKLPETQFIKLFANIFENSQFIAVALYKKKGDGFSDFKDLINKIMDIFENTTKEKKLKILNA | -0.173 |
| HMINPASEKQLSFANSLIAKKEGGTETLNHYLHNRKVSSLEELDRKDVSEIINALKFAKEVT | 0.0908 |
| HMINRPVYVPLYTNLDVKDAAEIAEKLEENNIAYKLEDQGETILVNPEQKYKVRLMLAQEGLPKG | 0.168 |
| HMINSFDYLQAIFTELMKSQSKMTNQDAAKRLFMQGKVAVSNRDREGLRMVLAQLVTLLPKEELGGLSTVS | ≥ 0.43 |
| HMIPESVQGIEEFLATGALKGIGKKTAAAIVHKFGKDTLRIMEEEPERLAEVSGIGEKKAAAIGEAFALH | -0.236 |
| HMIPNPMTDRELEVLGLLASGKTYKQVARALDLSQSTVRNHLHNVYHKLNVVDRAQAVIVSRENGW | -0.29 |
